Among the data in the NTF2 design screens of Basanta et al. (2020) are protease stability score values, retold here.

The data set is described as follows: protease stability score; higher = more stable; yeast display proteolysis, trypsin and chymotrypsin.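 Note: relative to predicted unfolded state with 0 unfolded-like and 1 meaning tenfold more protease.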
On to “DEMDHWVMEMFEHLLKLFLTGDEEKWERLADPNVKTRFIINGKDVRLHGREHFKKLVDELRITSVDLRDIRAVGNKAEVEGRVEGEFDGQTHILDMRVRFEIINGKLKKEEYVIR”, for which the protease stability score worked out at 1.27. Next, “DEMEDSSRWALEVEMKSFKTGDERSLYEMVDPHAKFEFENHHDHGRSAVELWREQADHMHIDFRLKDMRLVGDFIIIHGVELVHNHVNGRDIDLNLDVRIISRKINGRWILHHVLFR”: 1.38; “DEMEEESHTVLKLIVESFRTGDEEEVRHLADPNVRLDVDGQRNHGWKMLLKFFRQIRWHDVELHDIELQGDKMHIIGHVDGNVNGRRRRLDTHILLVKIDGKWRLELVHIH”: 1.55; “DEMEEHSRHLVELFWHWTDTGNEDLIRKNADPNVRLEVNGVHAHGWELYIRMMNQIRIEDRKINDVEVQGDKMRVDGEVQIYYNGKRVDDHLKLHLVVVDGKLKSVHRELE”: 1.31. The same measure for “DEMEEKIRTHMSLLVEYLDTGDEEITKSMLDPNTMAFYGDKLHIGREEAEEILREIRVHHLDIKRIDHQGDKIRVDGEMDGIVNGKRYRTRVEIFSTKINGRWIIEQRVIR”: 1.04; for “DEMEEQIKRLIHLLAHYLRTGDEHSTEELADPNVRIHIDGKEYHGRELFIKFLHERLRHLGIKHIHIHIKDIREIDGRIHIDGELEQHIDGKERRMKQEMLVEKIDGQWHIKELEIE”: 2.59.

“DEMEESAERMIEIYLRWLETGDEDSLVENIDPNVRVEIGDKRYHGREEVMHFLSSIQQRIKGARFHLKHFEIQGEYVDIHMEQRVGDKTMDRRVIFQKIDGRWLLKRSQVR”: the protease stability score was determined as 1.5.

In turn, “DEMEETTERITRLIHHYHRTGDWRLLSDLFDPHAKSEVNGVRLHGWHEMREFFENEMRELGIENVRFRYHLHDYRIFDGRVDLDVRLEIRIGDKEDHMESHIHTEKVNGQWRLRTLSLN” had a protease stability score of 0.412.

For the sequence “DEMEKMSRDVHKQLKNAFETGDESEMERLLDPHAKIDIGDKRLHGMEEYSHLLHEWRIKDLHIKDIQVQGDKAISDTHRYLEIGDKEYEREVIVYVIKVDGRWIIHSLVFR”, the protease stability score was 0.777. Next, “DEMEKWSEMALDLIAETVETGDEHTYRRNFDPHTRVNVNGRHLHGMEVWLKELHELGIDRIEMDMKDIRIQGDKAIIILTLIINGRFHHVSIVSVKIDGRWHLHSVKYD”: 0.33; “DEMEREVEKWVRIYLHALRTGDERILENMVDPEARTHINGRHDHGRDSLHKILKEMGFDHMHVEIRDVRVVNGQIHLEEIIRVDVDGRRITITVEVVIVKIDGRWIVKSFHIR”: 1.17; “DEMERIIETALELLIKSERTGDEDLYREFLDPHTIIDINGKIIHGREEFVRWFTEIRVHELKLRDMEIQGEFAIIYGEVDGRIGDKHFHTSVRLIVYKIDGRWIMRWNELN”: 1.42. Regarding “DEMERNEELALKIIEETQRTGDWHMIYEQLDPHVRIIIGDKTLVGREHVEEWLHRIDHLHVDDMKLEHSRPINGRILLDVHMHVHIRYGDKQVKHTTHVHIIMFKFNGRWYLKIVHIH”, the protease stability score stood at 2.65. “DEMHEYTERLLHLLTFAQITGDERIHERLADPNVKIHINGREFHGREEVWHSLEEIRVRHTELRESDIQGDKINVNGDVDLHFNGVDIVTKVRIVVDKVNGRWRISFLRID”: the protease stability score is 0.546. The same measure for “DEMKEEQRKFSELAIHNFETGDEDTFHRLADPHTKVEINGVLHIGRETVTTFFSHYWELFGVDHFEEKDRKIEIQGEKVITRIRGIIHFNGRQTDVLIRLEIRKINGRWILHSFTIEHI”: 0.579; for “DEMKEWIRELIERWTHAFLTGDEDELKRLVDPHAKLDINGRDVIGREDFVEHLRRLFEELGVKHVSSRMRDIKIVNGRAHVDSEFRLRVGEKQESHRMHIISDKYNGRWVIQSIHVE”: 1.93; for “DEMQEVLERFAHEWFHNLHTGDEDTLLKLADPNVRVHVGDKDLIGRELWKEELHKMKGLKLELHDYHAINGRIHLDVTQKFNGKEVELEMDIIVVNGRVKEIRHQRR”: 1.06. Consider “DEMREEVETILKLMEEWEKTGDFETILTYLDPNARLHENINGRELHSHGREFIHWAYEFFKNLRIETVQEDEVHIFENHFQIRVTLKGTINGRHYIFHRIIIINAIDGRIRHEVILYK”, for which the protease stability score was found to be 1.53. Next, “DEMRKYAHEYFKLLIELLLTGDEDSMLHNIDPNVRFDEHAENHRVHIHGMESLREWLDHFLKHAWITHIHESDSRVFNGRMHLIGHTRIYIDGKLEIKEIRIEFIVINGRITHYRVEVN”: 1.52; “DEMRRDVDETLKELLEAWETGDEEKVSHLMDPNVRIHIGDKTLVGRELVREEVRHLRYHDYDVHHIRVIGEKADIDGVLDGNVNGRRENRKIHLHLLKVDGRWFFEETRFE”: -0.004; “DEMTEDSERAMEILVRSILTGDEKDLIELADPNVRLDVNGRDYHGWKNFIKVFKKIMDELRIKDTELKDVRNQGEKAILDTRIHGIINGREIIFESSIDHRKINGVWLIERIIIK”: 1.1. The same measure for “DEMTHEIKRFLKEILRSSRTGDEHTDKHLMDPNVKIHYGEFHFHGREQAANFLSELRIHHVHIRDVDVQGDKATIDTEMDVEYNGQRYIFDVTLIMQKIDGRWLIKKVRYE”: 1.3; for “DENDTARKIIKTLLDIMREGDEDKLRDQMDPNVRADVGDKTVHGREHAAKFLAHIVKRADHISITLKSLHNHNGRLRMQAEVRIVHNGRTERVTLEMVFRDHNGKLLIERMKYG”: 2.36; for “DENEDRIRHLLELHFHALETGDEKKTHDLFDPNTRVEVGDKTLHGRELVSKHVAEDLIKIKGLTVRIRDWNIVGDKVVVDSRVEFNGVRVETILVALKVDGRWLVKSIHIH”: 0.42.

“DENEEDSKRAVELIEDSMKTGDEELMTKQMDPNVRVDYNGKEHHGWEHAKRWFHLMGVDHLHLHRVRLINGVVHLDVDSRINGREFKVHITALKVDGQWVLKEISIR” showed a protease stability score of 1.26. Sequence “DENEELLTDMIRLLKNVLETGDEEHFHRLADPHVRFKIGDKIFHGREEATRIFSEVMERFKNVRLRLEHIEIIGDKITIHTRIDVGDKSYEMHIHARKVNGKWIMETLFIR” yielded a protease stability score of 1.17. Next, “DENEEQLEDSVRMYIEAVQTGDEDSLRKLMDPHWRLEYGDKELHGRWALEVRHKFFKGMRIHHIEVHSVEIQGDKAKIIIHVLMEFDGRRLHIKTEVTVQKINGRWFNHSEKIN”: 1.14; “DENEETMRHYFELLVRNLRTGDWHSLTRLMDPHVRLEYNGREFHGMEEVIRFLLHIRLRHLHLERVEIQGDKVRMHVSVDGEVNGRREEWDVELIARKIDGRWIQTSEIYR”: 0.212. With “DENEHIAREFLRQFLRQVETGDEYRLMELMDPNARINFDGKDLHGRDEWIRKIREIRFDQTHIHDVRIQGNKMEVDTRWDGEINGVRTIFDVHMDIRKVDGKWIIKVINIH”, the protease stability score was 1.66. In turn, “DENEHQTRIWNEIFIKIFLTGDWKRLSDMADPHVRSIINGQDLHGMENLSKIVEEIREELRVRSVHLHDIKVINGVAKVDTRLDMEYGDKRTDYNIEIHTLKVDGRWHLKEIKLV” returned a protease stability score of 0.292. Next, “DENEQEARKAIEELIHNRETGDEQRMSELLDPHTRIDYNGVEVHGRHYLLKLLRRIDHSRFNLRRLDIQGEKIIMEGELELDVNGVKIRIKLTEIILKVNGRWILHSSRIE”: 1.95; “DENERRYNELSRLLFEWFLTGDEKMLSNFMDPNAKAEVNGKEEHGREELIRIYHDWLRKAGVDHIQPRHLETRHFDGRVHVHINVDVLINGKILHIHIDIDMVKIDGKWIIKHIRIHER”: 1.2; “DENETALREVIKRYFKAILTGDEHELENLLDPNVRVEINGVKLHGMRDYLEWIREWRIKDMRIRIEHVEVIGNKMIIDSRLRVNETVNGVTRDREKKLHLIVTKINGRWHIEEINEE”: 2.16. The sequence “DENHEIVKRALEIIVVALLTGDFDTLTELFDPEVRIQVGDKHLHGREDFWKWLKELITRADHNDFKVESIEVQGDKMVIDGEMIIHYNGREHRYKTEVIILKIDGRWVVKRIHYE” returned a protease stability score of 1.65. The same measure for “DENHEVAEYILKILVESLETGNEELFKRLIDPNVRIEINGVEVHGWQFWIDHIDELRIRRVEAILRDAREYNGRIDMDTELKMDGEIDGVRTETSRRVRMVLEKVNGRWYVREIRIE”: 2.39; for “DENHRHASELIEIFRHALATGDWETLYRLMDPHTRVLINGKDLHGMEEHLTFLLEEHERLGIENIDVRVRIDHREVQGDKIIIHITIHLNFNGREIYFESRIIVSKFNGRWSIESLEIR”: 1.42; for “DENKETIDRVYRLLDEALKTGDFEIFAYLMDPHVRNDVDGVDIVGRDLVKKVLEDIIRDLGFKHETLKVHDWRSINGRVHIDTEVELDVNGVDLRKRTIIIALKINGKWRITEIVFE”: 2.33. Consider “DENKKAFEEAVSWFRHTSETGDEELFNDLVDPDTRTNYNGVSYHGWKEYEEYLRLIRELLGIKVVKHVHIHSVDVQGDFIHMDVELNLHYNGRERIERSHIRAFKVNGRWRMKSMIVV”, for which the protease stability score was 0.362. In the case of “DENRELMERIARLVLHWLHTGDEHFIERLVDPHARVQQGDKEDHGMDRVVEMWNELRVHHVELRHLEVFENHATIHGEIDGEINGQRVRLDFHIHIHIVDGRMETIHVHFR”, the protease stability score turned out to be 2.1. With “DENRKFARVMTELILHSWYTGDWELDVKLADPNVLNDFNGKEIHGMENVSRQFIEMRIDDVRIRDLRIEVYGEKLISKIDGERNGHFDGRTVDTRMHLELIMEKINGRWIIREIRIEVK”, the protease stability score was 2.59. Next, “DENRQDLEHFHKVLLKLLETGDENMIARLADPNVREDVNGVDNHGMKDLERTLREIHERVDHIHHVHIHRVDVINGRAHLDGTLRGHVNGVSFQHRETVIYLKFNGRWVLHSVHLK”: 1.2; “DENRRHELEIAQILLHAWVTGDEHILRRFADPDMQFVLEFDGKTIDLHGRELVISFFRDLVDKLGVDHITLESHRVINGRTHIDTRVIFNGVDREEKIHIHIVNGRLKHLELRVH”: 1.22. Next, “DENSHALEIAFRLFLEYYYTGDPDEMVELADPRTRLFVGEYDSHGREQFETLLREEFKRLGIDVQHITEWEIHVQGDKVILHVRVHEVFNGKETETEIHITMHKIDGRWLISSQKRRIV”: 0.626. Next, “DENTENEHNIAEVIIEAFETGDWEMLWRMADPNTLLEIIIGDKRMEIHGMHIFVKYWVEFQDRFKNVRISLKSYHVYDGRIELHMNLNFNGRRVEEEVLIYFINGRVKRIHIRHH”: 2.8.

The sequence “DENTESVHWLIRVLIQSARTGDEDSMRHLFDPNTKLNINGQEIHGREVAEEWANRVDHIEHVELHRIRNIDGQLDVEGKMRGTVNGKRDENRIELIIIKVDGQWFLRSIRIE” gave a protease stability score of 1.57. Next, “DENTRLRREAFRIERKTWKTGDERLLEENADPDAKYDVDGKDLHGWREVVHFLDDFLKRFGFDHFEVKEIRVQGEKIIIDGRVEVNGRVFETRVIFTKFDGQWSVQSLQMR”: 0.444; “DEQEDRDMKKMYKNLQEGDDQRVADMADPNARWRVGDKTYHGKDSIRHWAKEVHDRMHFRIQSITVQNENGKVKVEIKWVTDENGKPVDQTVQVKAELHNGHIVDIDITTQS”: 0.098.
